Source: paper PMC4450073

What was measured:
[1] = biological target: Ad26.HVR5C hexon, on purified vector particles (human adenovirus type 26); experiment: SPR; biotinylated virus coupled to a streptavidin (SA) chip (Ad5 482 RU, Ad26.HVR5C 484 RU), T200; 2-fold serial dilutions of hFX from 30 μg/mL injected at 30 μL/min; 10 mM HEPES pH 7.4, 150 mM NaCl, 5 mM CaCl2, 0.005% Tween20; 1:1 binding model
[2] = biological target: adenovirus type 5 (Ad5) hexon, on purified Ad5 vector particles (human adenovirus type 5) (UniProt P04133); experiment: as above

Which results are given for “human coagulation factor X (natural protein)”?
Kd [1]: 3.46 nM; koff [1]: 0.0107 s⁻¹; kon [1]: 3.08e+06 M⁻¹ s⁻¹; Kd [2]: 2.33 nM; koff [2]: 0.00305 s⁻¹; kon [2]: 1.31e+06 M⁻¹ s⁻¹
